In patent US20090068207A1, “Compositions Containing Beta 2-Glycoprotein I-Derived Peptides for the Prevention and/or Treatment of Vascular Disease” (Vascular Biogenics Ltd., priority 2005, published 2009):
Where “and” joins values, the source holds several entries; their conditions need not be identical. Equal entries are not always repeated.

Columns and labels:
[1] = test system: inguinal lymph node cells; assay: Lymph node cell proliferation (stimulation index) to sensitizing antigen β2GPI after mucosal administration; assay type: in vivo, mice; settings: then immunization with human β2GPI, LDL-RD mice
Procedure: Immunization: Subcutaneous immunization with human β2GPI: Human β2GPI was prepared from human plasma pool as described above. For immunization, human β2GPI was dissolved in PBS and mixed with equal volumes of Freund's incomplete adjuvant. Immunizations were performed by single subcutaneous injection of 10 μg antigen/mouse in 0.1 ml volume. Three days following the last mucosal administration of plaque associated molecules the mice received one immunization, and were sacrificed 10 days post immunization.
Proliferation assays: Mice were exposed to the tested antigen as described for assessment of atherosclerosis, and then immunized (one to three days following the last exposure) subcutaneously with 10 μg β2GPI in 0.1 ml PBS, prepared from purified human β2GPI as described above.
Proliferation was assayed ten days after immunization with the β2GPI as follows: Draining inguinal lymph nodes were prepared by mashing the tissues on 100 mesh screens. Red blood cells were lysed with cold sterile double distilled water (6 ml) for 30 seconds and 2 ml of NaCl 3.5% was added. Incomplete medium was added (10 ml), cells were centrifuged for 7 min at 1,700 rpm, resuspended in RPMI medium and counted in a haemocytometer at 1:20 dilution (10 μl cells+190 μl Trypan Blue). Proliferation was measured by the incorporation of [^3H] Thymidine into DNA in triplicate samples of 100 μl of the packed cells (1×10^6 cells/ml) in a 96 well microtiter plate. […] Thymidine (0.5 μCi/well) was added. After an additional 12-24 hours of incubation the cells were harvested and transferred to glass fiber filters using a cell harvester (Brandel) and counted using β-counter (Lumitron). Proliferation was measured by the incorporation of [^3H] thymidine into DNA during the final 12 h of incubation. The results are expressed as the stimulation index (S.I.): the ratio of the mean radioactivity (cpm) of the antigen to the mean background (cpm) obtained in the absence of the antigen. Standard deviation was always <10% of the mean cpm.
Tolerance induced by mucosal exposure to plaque-associated molecules may be mediated by suppression of specific immune responses to antigenic portions (epitopes) of these plaque associated molecules. Lymphocyte proliferation in response to mucosal (nasal and oral) exposure to human β2GPI was measured in […]. 9 male, 5 week old LDL-RD mice were divided into 3 groups. In group A (n=3) oral tolerance was induced with 100 μg/mouse β2GPI suspended in 0.1 ml PBS, administered by gavage, as described above, every other day for 5 days. In group B (n=3) nasal tolerance was induced with 10 μg/mouse β2GPI suspended in 10 μl PBS, administered intranasally as described above, every other day for 5 days. The mice in group C (n=3) received oral administration of 200 μl PBS every other day for 5 days. Immune reactivity was stimulated in all mice by immunization with human β2GPI as described above in the Materials and Methods section, one day after the last feeding. Ten days after the immunization lymph nodes were collected for assay of proliferation (as expressed in the Stimulation Index SI). All mice were fed normal chow-diet containing 4.5% fat by weight (0.02% cholesterol) and water ad libitum.

[2] = test system: ApoE-KO mice; assay: Aortic sinus lesion area after oral administration in ApoE-KO mice; assay type: in vivo
From the text: Assessment of Atherosclerosis: Quantification of atherosclerotic fatty streak lesions was done by calculating the lesion size in the aortic sinus as previously described (16) and by calculating the lesion size in the aorta. Briefly, after perfusion with saline Tris EDTA, the heart and the aorta were removed from the animals and the peripheral fat cleaned carefully. The upper section of the heart was embedded in OCT medium (10.24% w/w polyvinyl alcohol; 4.26% w/w polyethylene glycol; 85.50% w/w nonreactive ingredients) and frozen. Every other section (10 μm thick) throughout the aortic sinus (400 μm) was taken for analysis. The distal portion of the aortic sinus was recognized by the three valve cusps that are the junctions of the aorta to the heart. […] Lesion areas per section were scored on a grid (17) by an observer counting unidentified, numbered specimens. The aorta was dissected from the heart and surrounding adventitious tissue was removed. Fixation of the aorta and Sudan staining of the vessels were performed as previously described (21).
In order to determine the protective effect of mucosal administration of β2GPI on development of atherosclerosis, adult ApoE-KO mice were treated with oral administration of human β2GPI. 20 week-old male ApoE-KO mice, having advanced atherosclerotic lesions were treated monthly with human β2GPI (50 μg/dose) or PBS (0.2 ml) in 5 oral administrations (by gavage, as described hereinabove) given every other day, for four months. Lesion area calculated from cryosections of the aortic sinus were compared between control untreated 20 week old mice, and mice following 16 weeks oral administration of β2GPI or PBS.
10-11 week-old male ApoE-KO mice, having early atherosclerotic lesions, were treated with 5 oral administrations (by gavage, as described hereinabove) given every other day of human β2GPI peptide S-4 (SEQ ID NO: 14) or human β2GPI (50 μg/dose) or PBS (0.2 ml). Lesion areas calculated from cryosections of the aortic sinus were compared between control untreated, human β2GPI treated and S-4 human β2GPI-derived peptide treated mice at 8 weeks following the last oral administration of the antigens, or of PBS.

[3] = test system: ApoE-KO mice; assay: Aortic sinus lesion area after nasal administration in ApoE-KO mice; assay type: in vivo
Procedure: Nasal Tolerance: Nasal tolerance was induced by intranasal administration of oxidized LDL, β2GPI, β2GPI-derived peptides or HSP65, in a total volume of 10 μl PBS. Intranasal administration was performed on mildly sedated mice (12-16 weeks old), each mouse receiving […] of antigen per dose, in the indicated concentrations, every other day. Atherogenesis was induced by 5 weeks of a Western diet initiated on the day following the last intranasal administration, or assessed (in Apo E KO mice) after 8 weeks on a chow diet. Controls received equal amounts of BSA and/or PBS, as indicated, in an identical regimen. Plasma was obtained for assessment of cholesterol and triglyceride levels from all mice, and the mice were sacrificed for evaluation of atherosclerosis, as described hereinbelow, after 5 weeks Western diet, or (in Apo E KO mice) after 8 weeks on a chow diet.
Assessment of Atherosclerosis: Quantification of atherosclerotic fatty streak lesions was done by calculating the lesion size in the aortic sinus as previously described (16) and by calculating the lesion size in the aorta. Briefly, after perfusion with saline Tris EDTA, the heart and the aorta were removed from the animals and the peripheral fat cleaned carefully. […] Lesion areas per section were scored on a grid (17) by an observer counting unidentified, numbered specimens. […]

B1: Human β2 GPI: human beta2-glycoprotein I (SEQ ID NO: 10) purified from serum (protein)
chain: MISPVLILFSSFLCHVAIAGRTCPKPDDLPFSTVVPLKTFYEPGEEITYSCKPGYVSRGGMRKFICPLTGLWPINTLKCTPRVCPFAGILENGAVRYTTFEYPNTISFSCNTGFYLNGADSAKCTEEGKWSPELPVCAPIICPPPSIPTFATLRVYKPSAGNNSLYRDTAVFECLPQHAMFGNDTITCTTHGNWTKLPECREVKCPFPSRPDNGFVNYPAKPTLYYKDKATFGCHDGYSLDGPEEIECTKLGNWSAMPSCKASCKLPVKKATVVYQGERVKIQEKFKNGMLHGDKVSFFCKNKEKKCSYTEDAQCIDGTIEVPKCFKEHSSLAFWKTDASDVKPC
S.I (Stimulation Index) ([1]; nasal 10 μg/mouse every other day for 5 days): 2.1 ± 0.5
S.I (Stimulation Index) ([1]; oral 100 μg/mouse every other day for 5 days): 4.4 ± 0.5
Aortic sinus lesion (μm^2) ([2]; End, oral 50 μg, 5 doses, ApoE-KO mice): 90833 ± 9502 μm^2
reduction of progression of atherosclerotic lesions compared to PBS controls ([2]; oral 50 μg, 5 doses, then 8 weeks of chow diet, 10-11 week-old ApoE-KO mice): 47%
inhibition of progression of atherosclerotic lesions as compared to PBS control ([2]; oral 50 μg/dose, 5 administrations monthly for four months, 20 week-old ApoE-KO mice, 16 weeks): > 30% and 35%
Aortic sinus lesion (μm^2) ([3]; End, nasal 10 μg/mouse, mean ± S.E): 117449 ± 7524 μm^2
reduction of progression of atherosclerotic lesions compared to PBS controls ([3]; nasal 10 μg, 3 doses, then 8 weeks of chow diet): 19%
